Results on three molecules are retold here after patent US20250092134A1 (Janssen / Centocor, published 2025).

To fix the notation:
B1: 20C12A3 (antibody, V domains shown)
VH: EVQLQESGAELVRPGTSVKMSCKASGYTFTHYWIDWTKQRPGHGLEWIGNIYPGGGYTNYNENFKGKATLTADKSSSTVFMQFSSLTSDDSAIYYCTRKGYYYGSDWYFDVWGTGTTVTVSS
VL: STSVGDRVSITCKASQDVSTAVAWYHQKPGQSPKLLIYSASYRYTGVPDRFTGSGSGTDFTFTISSVQAEDLAVYYCQQHYTTPYTFGGGTKLEMK
B2: 20A9A9 (antibody, V domains shown)
VH: EVQLQESGPGLVQPSQSLSITCTVSGFSLTSYGVHWVRQSPGKGLEWLGIIWSAGGTDYNAAFISRLSISKDNSKSQIFFKLNSLHADDTAIYFCARGSFYDYGRLDYWGQGTTLTVSS
VL: DIVMTQSHRFMSTSVGDRVSITCKASQDVSTAVAWYQQKPGQSPKLLIYSSSYRYTGVPDRFTGSGSGTDFTFTISSVQAEDLAVYYCQQHYGTPYTFGGGTKLEIQ
B3: 23A9B10 (antibody, V domains shown)
VH: EVQLQESGPGLVKPSQSLSLTCSVTGYSITSGYYWNWIRQFLGNKLEWMGYITYDGSNNYNPSLKDRISITRDTSKNQFFLNLNSVTTDDTATYYCARGGGYVPVWGTGTTVTVSS
VL: IQMTQSPAFLSVSPGERVSFSCRASQNIGTSIHWYQQRTNGSPRLLIKYASESISGIPSRFSGSGSGTDFTLSINSVESEDFADYYCHQSHNWPTTFGAGTKLELK

The target of this assay is Vβ17 (on cells expressing Vβ17). Kind of assay: cell-based or functional assay.
Vβ17 (on cells expressing Vβ17), sequence (A0A075B6N1 22-114): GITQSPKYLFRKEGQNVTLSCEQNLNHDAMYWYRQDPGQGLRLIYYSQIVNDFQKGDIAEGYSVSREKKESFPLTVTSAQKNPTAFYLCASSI
As for B1, the “Cell Internalization (EC50)” value was determined as 0.06 nM.
In the case of B2 it was 0.29 nM.
For B3 the value was 15.4 nM.
